Source: the RNAGym collection of RNA variant scans (doi:10.1073/pnas.2313332121)

B1: TPR t1 (parent)
chain: GACCAAUCUGCCCUCAGAGCUCGAGAACAUCUUCGGAUGCAGAGGAGGCAGGCUUCGGUGGCGCGAUAGCGCCAACGUCCUCAACCUCCAAUGCAUCCCACCACAUGAUGAUGCCUGAAGAGCCUUGGUUUUUUG

Variants of: B1
Assay: polymerase ribozyme fitness, log enrichment relative to wild type (log ratio); higher = more active; in vitro selection for triplet polymerase activity
In short: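 In triplicate, a single round of in vitro selection was run on each mutant library, PCR-built and transcribed, covering one subunit of a heterodimeric triplet polymerase ribozyme. Frozen incubation at −7 °C followed annealing with a biotinylated primer, partner subunit and triplets, and extended constructs were then gel-excised, streptavidin-captured and taken through RT-PCR. Fitness is the logarithm of genotype enrichment over wild-type enrichment, from inverse-variance-weighted replicate averages of Illumina-sequenced inputs and outputs. […] only genotypes with ≥10 input reads and ≥1 read per output were kept.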

Point of comparison: C34U G71A, “polymerase ribozyme fitness (log ratio)” value -5.88. Against it:
- C15U U87A — higher, -2.53
- C114U U126A — higher, -3.35
- G77C U92C G122A — higher, -2.81
- C86A C98U — higher, -0.468
- G48U G61U G93U U112A C124A — higher, -0.694
- C8A A41U G69U C86A — higher, -0.0176
- C56U C73U C76U — higher, -2.54
- C72A A75C U87G C102A U116A C124U U130A — higher, -5.54
- C4A G60A C102U A118U U132C — higher, -4.76
- C13U G47U — higher, -1.97
- G45C G71A C73U C86A U109A — lower, -6.99
- G51U G120C U133G — higher, -1.86
- A27G U112A — higher, 1.03
- A29G C49A — higher, -1.64
- C22G C72G C124A — higher, -2.22
- G47A U78A — higher, -1.09
- C12A G61U A66C U78C C80A G107U C114U G127C — lower, -6.6
- G36A C124U — higher, 0.816
- C15A G71U C104A — higher, -4.07
- C8A A100C — higher, -0.0614
- G47C C102U G110U U133A — higher, -5.04
- U54G A103U — higher, -4.6
- G48A C79A U126C — higher, -2.73
- C8U C72G A84U U87C U92G — higher, -4.49
- C56A A90U — higher, -1.48
- C40U A43U A90G G113U — higher, -3.26
- A29C A37G — higher, -2.11
- A6U A90U C114A U116G — higher, -3.49
- A5U C104U U112A G120U — higher, -0.575
- G52A G113A — higher, -1.37
- G39U G71U — higher, -1.16
- A6G C12U — higher, -0.282
- A6C C15U C70U C101A U130G — higher, -4.08
- C11G A68G U81A U106A G110A G113U A121G — lower, -6.2
- C8U G61U — higher, 0.435
- U54A C73U A121U U130A — higher, 2.07
- C34U C64U — higher, -3.93
- C15A G61U — higher, -0.806
- G25U C56U C123G — lower, -6.4
- A43G C124A — higher, 0.39
- U30A G48C C124A — higher, -5.2
- U59C C70A — higher, -2.41
- G45U G60C U125G U133A — higher, -1.59
- G25U U33A A68U A111C G127C — lower, -6.82
- G93C C101A C123A U125A U131A — higher, -1.5
- A2U C13A C73U A74G — higher, -3.05
- G52C C72A U78C — higher, 0.275
- C13A C53A G120U U132C — higher, -0.539
- C22G G36C — higher, -3.09
- U78C U87G U126A — higher, -2.18
- G61A G113A U130G — higher, -1.32
- G47U G51U C124U — higher, -3.46
- A29U C56G G58C G77A C88U G120C C123G U129A — higher, -5.14
- C8U C70A C115U G117A — higher, -4.95
- C13A G48A C114U U129A — within 0.2 log units, -5.75
- G10U A27C U112C — higher, -1.73
- C70G C98U — higher, -2.99
- C22U C56A C72A A83C U96A — higher, -5.56
- C40A C80U C89U G117A A121G — higher, -0.909
- A29U C94A C102G U109C U130C — lower, -6.22
- G58A G135U — higher, -1.49
- U7G C28G U106A — higher, -1.02
- C15A G51A A74U C79G A111C A118U — lower, -6.36
- C72A U112C G127C — higher, 0.93
- C12G U14G A24G C49A G61U G77U C104U — lower, -6.42
- G19A C53A C101U — higher, -2.73
- C70U A111G G120C — higher, -4.93
- U81A U106C G110A G113C C114U A119G — higher, -5.29
- A50U C79U — higher, -1.76
- C49U G51A — higher, -1.4
- C8A U133G — higher, 0.0303
- C15U C62A C86U A111C U129G — higher, -4.97
- G17A A75G C89A A90G — higher, -3.23
- C13A G47C — higher, -3.14
- G45U U96G — higher, -1.78
- G71U U96C — higher, -0.38
- C12U C13U C20A G47C C86U — higher, -2.7
- C20G C124A — higher, -2.2
- A43G G110A — higher, -3.34
- G10U G36A G61C — higher, -3.3
- A74U U78A C85U C114U — higher, -4.72
- G61U A119G — higher, 1.3
- C3U C13U A41G G61U C79A C85U G120U G127C — higher, -3.54
- A27U G60U C82A U125G — higher, -3.48
- G44U G117U — higher, -3.54
- C72G U81A U130A — higher, -1.44
- C40A C89G U106G C123U — higher, -5.55
- G110U G117C — higher, -5.42
- A24U C40U — lower, -6.96
- G48A G63U C82G A91U G117C — higher, -5.43
- U32G A119U — lower, -6.21
- C3U G71C G77A — within 0.2 log units, -5.92
- U14G G47A C89G C114G U116C G117A U133A — lower, -6.43
- C31G U33A G48U C49U C72G A108U G120U — lower, -8.14
- C4G A5U — higher, -2.76
- G45U C72G A91C — higher, -2.3
- U14G A43U C88G — higher, -3.5
- C34A C85A G113A — higher, -4.78
- C11G A66C — higher, -0.842
- C101A C102A — higher, -5
- C11G C20G C49A G117C — higher, -5.23
- G48A C53U C80U C124U — higher, 0.0289
- C70U C98U — higher, -1.16
- C62A A66U — higher, -3.17
- A46U C76A A84C A100C C124A — higher, -4.99
- C53A U112A — higher, 0.632
- G10A A37U C72A G77C G113A C114U U116G G128A — lower, -7.17
- G63U C89U — higher, -1.85
- C28A C89U U112A — higher, -1.62
- A2G G61A U116A — higher, -4.16
- G45C U133G G135U — higher, -1.52
- G71A A119G — higher, -0.102
- C72U G120C C123G — higher, 0.164
- A105U G135C — higher, -2.07
- U21C A41U G120A — higher, -0.65
- C49G C62U — higher, -0.813
- G44A C82A — higher, -1.69
- C20U U81C — higher, -1.54
- C8U G52C — higher, -0.0551
- U32G C34G C64U C85A G110U — lower, -6.37
- A27U A37G G48A C72G A83U U130A — higher, -4.93
- C15U G61A C82U C85A C86G — higher, -2.18
- A29G C40U — higher, -2.17
- G71C U130G — higher, -1.76
- C13A G48A U109A G120C — higher, -5.29
- C12A C40A C72A U130A — higher, -2.02
- G61A C104U — higher, 0.241
- C8G C56A G77A — higher, -0.27
- U38C G45A U54A A83C G120U — higher, -0.856
- C49U G63U A95G U112A — higher, -2.42
- A50U C72U — higher, -1.18
- C76A C82G C88U G110C — within 0.2 log units, -5.82
- U96G C102G C124U U125A — within 0.2 log units, -6.03
- C3A C8G C12A C13U C20G G35C C70G A118G C124A U132A — lower, -6.19
- C12G C114U — higher, -1.65
- U9A C12A G42U A46G C53G C70U U132A — higher, -2.02
- C12U G17U C94U G113A — higher, -2.71
- A41C U112A — higher, 0.299
- A24U A46G G48A C70A A111G — lower, -6.69
- G48C C49G A84U C124U — higher, -1.8
- U9A G17A G113A — higher, -3.11
- G58C U96A C97A C104A G120U G128C — lower, -7.29
- C8U G45U U59C U92A — higher, -4.17
- C62A U78C G117A — higher, -3.04
- C13U U112A C123A G128C — higher, -1.12
- C40U A46G U78G — higher, -0.597
- U9C C11U G61A C88G — higher, -0.498
- C12A A26G — higher, -1.73
- A27C A74C — higher, -3.6
- G44A G45C — higher, -3.88
- C11G G122A — higher, 0.352
- C15G G42C G60U C94U A118U — higher, -3.25
- A66U U130G — higher, -1.71
- C15U C101U — higher, -1.84
- G52A — higher, -0.286
- G48U G52U G63C — higher, -2.05
- C13G G17A C115U — higher, -1.42
- C53G C64U G127U — higher, -1.02
- A24G C72U C88A G93U — higher, -5.29
- G117U U129A — higher, -3.5
- U7A C13G G63U G93A C102G C115U A121G — lower, -7.01
- A26U G44U C64G C89U U112G — lower, -6.55
- U14A G48U U59G — higher, -2.71
- C3U G113U — higher, -2.47
- G47U G61U — higher, -2.36
- C53G G69A — higher, -3.62
